{"source": "patent US20260139049A1", "about": "(PEDIATRIC IMMUNITY AND HEALTHCARE GUANGZHOU BIOTECHNOLOGY, published 2026)", "binders": {"B1": {"name": "IMAB027 (antibody, human IgG1, kappa, V domains shown)", "VH": "EVQLQQSGPELVKPGASMKISCKASGYSFTGYTMNWVKQSHGKNLEWIGLINPYNGGTIYNQKFKGKATLTVDKSSSTAYMELLSLTSEDSAVYYCARDYGFVLDYWGQGTTLTVSS", "VL": "IVLTQSPAIMSASPGEKVTITCSASSSVSYLHWFQQKPGTSPKLWVYSTSNLPSGVPARFGGSGSGTSYSLTISRMEAEDAATYYCQQRSIYPPWTFGGGTKLEIKR", "notes": "variable regions of mAb206-LCC on human IgG1 constant regions; also called benchmark antibody; control antibody"}}, "key": {"human CLDN6 [1]": {"molecular_target": "T1, human CLDN6 (human, UniProt P56747 1-220)", "T1 construct": "whole, on cells; four-transmembrane protein; also called claudin-6; HEK293T-CLDN6", "T1 sequence (looked up)": "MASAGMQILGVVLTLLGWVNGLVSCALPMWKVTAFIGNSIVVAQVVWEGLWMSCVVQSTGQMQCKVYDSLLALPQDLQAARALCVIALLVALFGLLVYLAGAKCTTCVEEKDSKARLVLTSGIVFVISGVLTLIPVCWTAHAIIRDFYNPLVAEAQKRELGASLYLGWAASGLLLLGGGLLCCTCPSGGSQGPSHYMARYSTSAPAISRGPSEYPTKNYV", "experiment": "FACS on HEK293T-CLDN6 cells", "experimental": "(§1) To detect a binding capacity of a chimeric or humanized antibody to CLDN6, a CLDN6-expressing cell line HEK293T-CLDN6 and a CLDN6-negative control cell line HEK293T were washed three times with PBS. 1×10⁵ test cells and 50 μL of an antibody solution to be tested were added to a 96-well plate, and incubated at 4° C. for 1 h. The cells were then washed three times with PBS. […] Finally, cells were washed three times with PBS, and signals were read using FACS.\n(§2) An EC50 value (a concentration of an antibody that binds to half of binding sites at equilibrium) is calculated through nonlinear regression."}, "human CLDN6 [2]": {"molecular_target": "T1, human CLDN6", "experiment": "FACS on HEK293T-CLDN6 cells", "experimental": "as §1, §2", "remark": "listed apart in the source"}, "human CLDN6 [3]": {"molecular_target": "T1, human CLDN6", "experiment": "FACS on HEK293T-CLDN6 cells", "experimental": "as §1, §2", "remark": "listed apart in the source"}, "mouse CLDN6": {"molecular_target": "T2, mouse CLDN6 (mouse, UniProt Q9Z262 1-219)", "T2 construct": "whole, on cells; also called CHO-K1-Mouse CLDN6", "T2 sequence (looked up)": "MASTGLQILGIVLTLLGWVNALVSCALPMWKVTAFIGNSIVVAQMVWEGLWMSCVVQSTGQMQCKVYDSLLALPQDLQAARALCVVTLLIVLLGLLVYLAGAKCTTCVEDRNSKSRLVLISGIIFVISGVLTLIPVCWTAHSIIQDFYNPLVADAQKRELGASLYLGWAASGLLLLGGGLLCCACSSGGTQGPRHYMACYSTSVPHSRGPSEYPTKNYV", "experiment": "FACS on CHO-K1-Mouse CLDN6 cells"}, "human CLDN3": {"molecular_target": "T3, human CLDN3 (human, UniProt O15551 1-220)", "T3 construct": "whole, on cells; also called HEK293T-CLDN3", "T3 sequence (looked up)": "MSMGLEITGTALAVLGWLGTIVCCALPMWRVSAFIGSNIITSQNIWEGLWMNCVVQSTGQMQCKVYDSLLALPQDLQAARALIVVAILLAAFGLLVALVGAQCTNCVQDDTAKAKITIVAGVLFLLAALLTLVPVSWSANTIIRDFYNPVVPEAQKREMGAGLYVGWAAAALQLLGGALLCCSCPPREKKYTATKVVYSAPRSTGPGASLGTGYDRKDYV", "experiment": "FACS on 293T-CLDN3 cells, 10 µg/mL", "experimental": "(§3) 50 μL of an antibody to be tested was added to a 96-well plate, then 1× 10⁵ cells were added to each well, and incubation was conducted at 4° C. for 1 h. Cells were washed three times with PBS. […] Finally, cells were washed three times with PBS, and signals were read using FACS. Binding capacities of the antibody to CLDN9, CLDN3, and CLDN4 were analyzed separately based on detection data."}, "human CLDN6 [4]": {"molecular_target": "T1, human CLDN6", "experiment": "FACS on 293T-CLDN6 cells, 10 µg/mL"}, "human CLDN6 [5]": {"molecular_target": "T1, human CLDN6", "experiment": "FACS on 293T-CLDN6 cells, 10 µg/mL", "remark": "listed apart in the source"}, "human CLDN9 [6]": {"molecular_target": "T4, human CLDN9 (human, UniProt O95484 1-217)", "T4 construct": "whole, on cells; also called HEK293T-CLDN9", "T4 sequence (looked up)": "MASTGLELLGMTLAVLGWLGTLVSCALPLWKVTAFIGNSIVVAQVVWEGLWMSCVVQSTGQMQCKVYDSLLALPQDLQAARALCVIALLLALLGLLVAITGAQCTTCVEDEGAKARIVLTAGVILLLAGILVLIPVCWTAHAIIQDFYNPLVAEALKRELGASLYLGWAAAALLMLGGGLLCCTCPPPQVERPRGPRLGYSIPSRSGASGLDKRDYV", "experiment": "FACS on 293T-CLDN9 cells, 10 µg/mL", "experimental": "as §3"}, "human CLDN9 [7]": {"molecular_target": "T4, human CLDN9", "experiment": "FACS on 293T-CLDN9 cells, 10 µg/mL", "experimental": "as §3", "remark": "listed apart in the source"}, "human CLDN6 [8]": {"molecular_target": "T1, human CLDN6", "experiment": "FACS on CLDN6 cells (same value as Table 3, HEK293T-CLDN6)"}, "human CLDN6 [9]": {"molecular_target": "T1, human CLDN6", "experiment": "FACS on PA-1 tumour cells; target on the cells taken as CLDN6", "experimental": "(§4) The specific binding of a chimeric antibody to a tumor cell was detected by FACS, and an EC50 value was calculated accordingly to evaluate an inhibitory effect of the chimeric antibody on the tumor cell.\nas §3, with “1×10⁵” for “1× 10⁵”, “A binding capacity” for “Binding capacities”, “each tumor cell was” for “CLDN9, CLDN3, and CLDN4 were”, “analyzed” for “analyzed separately”"}, "human CLDN6 [10]": {"molecular_target": "T1, human CLDN6", "experiment": "FACS on PA-1 tumour cells; target on the cells taken as CLDN6", "experimental": "as §3, with “1×10⁵” for “1× 10⁵”, “A binding capacity” for “Binding capacities”, “each tumor cell was” for “CLDN9, CLDN3, and CLDN4 were”, “analyzed” for “analyzed separately”", "remark": "listed apart in the source"}, "human CLDN6 [11]": {"molecular_target": "T1, human CLDN6", "experiment": "FACS on PA-1 tumour cells; target on the cells taken as CLDN6", "experimental": "as §3, with “1×10⁵” for “1× 10⁵”, “A binding capacity” for “Binding capacities”, “each tumor cell was” for “CLDN9, CLDN3, and CLDN4 were”, “analyzed” for “analyzed separately”", "remark": "listed apart in the source"}, "human CLDN6 [12]": {"molecular_target": "T1, human CLDN6", "experiment": "FACS on HepG2 tumour cells; target on the cells taken as CLDN6", "experimental": "as §4\nas §3, with “1×10⁵” for “1× 10⁵”, “A binding capacity” for “Binding capacities”, “each tumor cell was” for “CLDN9, CLDN3, and CLDN4 were”, “analyzed” for “analyzed separately”"}, "human CLDN6 [13]": {"molecular_target": "T1, human CLDN6", "experiment": "FACS on HepG2 tumour cells; target on the cells taken as CLDN6", "experimental": "as §3, with “1×10⁵” for “1× 10⁵”, “A binding capacity” for “Binding capacities”, “each tumor cell was” for “CLDN9, CLDN3, and CLDN4 were”, “analyzed” for “analyzed separately”", "remark": "listed apart in the source"}, "human CLDN6 [14]": {"molecular_target": "T1, human CLDN6", "experiment": "FACS on HepG2 tumour cells; target on the cells taken as CLDN6", "experimental": "as §3, with “1×10⁵” for “1× 10⁵”, “A binding capacity” for “Binding capacities”, “each tumor cell was” for “CLDN9, CLDN3, and CLDN4 were”, “analyzed” for “analyzed separately”", "remark": "listed apart in the source"}, "human CLDN6 [15]": {"molecular_target": "T1, human CLDN6", "experiment": "FACS on HepG2 tumour cells; target on the cells taken as CLDN6", "experimental": "as §3, with “1×10⁵” for “1× 10⁵”, “A binding capacity” for “Binding capacities”, “each tumor cell was” for “CLDN9, CLDN3, and CLDN4 were”, “analyzed” for “analyzed separately”", "remark": "listed apart in the source"}}, "note": "Where two headings read alike, the source gives them in different places.", "data": [{"binder": "B1", "values": [{"measurement": "EC50", "setting": "human CLDN6 [1]", "value": 0.0727, "unit": "µg/mL"}, {"measurement": "EC50", "setting": "human CLDN6 [2]", "value": 0.213, "unit": "µg/mL"}, {"measurement": "EC50", "setting": "human CLDN6 [3]", "value": 0.0461, "unit": "µg/mL"}, {"measurement": "EC50", "setting": "mouse CLDN6", "value": 0.181, "unit": "µg/mL"}, {"measurement": "Geom.Mean", "setting": "human CLDN3", "value": 151}, {"measurement": "Geom.Mean", "setting": "human CLDN6 [4]", "value": 44300}, {"measurement": "Geom.Mean", "setting": "human CLDN6 [5]", "value": 23600}, {"measurement": "Geom.Mean", "setting": "human CLDN9 [6]", "value": 3810}, {"measurement": "Geom.Mean", "setting": "human CLDN9 [7]", "value": 1810}, {"measurement": "EC50", "setting": "human CLDN6 [8]", "value": 0.213, "unit": "µg/mL"}, {"measurement": "EC50", "setting": "human CLDN6 [9]", "value": 0.0741, "unit": "µg/mL"}, {"measurement": "EC50", "setting": "human CLDN6 [10]", "value": 0.141, "unit": "µg/mL"}, {"measurement": "EC50", "setting": "human CLDN6 [11]", "value": 0.141, "unit": "µg/mL"}, {"measurement": "EC50", "setting": "human CLDN6 [12]", "value": 0.192, "unit": "µg/mL"}, {"measurement": "EC50", "setting": "human CLDN6 [13]", "value": 0.515, "unit": "µg/mL"}, {"measurement": "EC50", "setting": "human CLDN6 [14]", "value": 0.583, "unit": "µg/mL"}, {"measurement": "EC50", "setting": "human CLDN6 [15]", "value": 0.959, "unit": "µg/mL"}]}]}
